According to patent publication US12472269B2, “Liver-specific inducible promoters and methods of use thereof” (ASKBIO INC., priority 2019, dated 2025):

Tested on: CD1 male mice
Assay: In vivo bioluminescence imaging of mice injected with AAV9 constructs, induction by phenobarbital
Experimental: • Seed HEK 293-AAV cells in 15 cm plates. To be 70-80% confluent on the day of transfection • Final volume on each plate: 15 ml Day 2: Prepare Transfection Mix: • DNA mix/plate: pDG9 (Packaging plasmid for AAV9): 10.5 μg/pHGTI (Ad. Helper plasmid): 31.5 μg/Vector plasmid: 10.5 μg/Prepare in serum free DMEM/Optimem • Transfer mix/plate: PEI: 125 μl/Prepare in serum free DMEM/Optimem • Add DNA mix into transfection mix. Mix and leave at room temperature for 15-20 mins. • Add 3 ml of transfection mix to each plate drop-wise and gently distribute. Incubate for 24 h. Day 3: • Replace media with 15 ml DMEM supplemented with P/S and 2% FCS. Leave for 48 h. Day 5: • Collect supernatant and pool in 50 ml tubes, 25 ml each tube. Store at −20° C. • Collect cells: Add 5 ml of PBS to each plate→scrape and collect in 50 ml tubes. • To wash plates, add another 1 ml of PBS and collect. • Spin at 1500 rpm for 5 mins. • Remove supernatant and resuspend pelleted cells in 1 ml/plate TD lysis buffer→pool • Store at −80′C. Endonuclease Treatment Cells: • Freeze and thaw pellets 5 times→˜20 mins at 37° C. then ˜20 mins in dry ice (or −80° C.). • Add 25 μl/ml cells of 20% Deoxycholate (or 50 μl/ml of 10% Deoxycholate). • Add 8 μl/ml cells of benzonase. • Incubate at 37° C. for 30 mins. • Spin at 4 Krpm for 30 mins. • Filter supernatant using […] filters. • Store at 4° C. for up to 24 h. Supernatant: • Add 2.5 μl/25 ml supernatant of benzonase. • Add 50 μl/25 ml supernatant of MgSO4. • Incubate at 37° C. for 30 mins. • Spin at 4 Krpm for 30 mins. • Filter supernatant using […] filters. • Store at 4′C for up to 24 h. Hplc Purification • Place both lines in 20% ETOH→template→system wash • Put line A in PBS and line B in Glycine→template→system wash • Place the column in the machine→manual run→flowrate: 5 ml/min→Run for 25 ml or until the UV line is flat. • Prepare FACS tubes (10 for cells and more for supernatant): add 30 μl/tube Tris→put in the machine to collect vectors. • Place the waste lines in a separate tube to be able to run them again through the column. • Run samples (flowrate low, depending on how fast the system and how concentrated the sample is; for cells it is slower, for supernatant it is higher). • After running the waste through the column, wash with PBS→flowrate: 5 ml/min until the UV line is flat. • Set→fraction size: 1 ml; Flowrate: 1 ml/min; concentration % B: 100%→run. • Start collecting: Look for the peak. The peak indicates vector purification. Mark the tubes containing these vectors. • Save programme before exiting. • Wash with PBS→75 ml, 5 ml/min • Wash with Na3PO4 (to store the column in)→75 ml, 5 ml/min • Remove column and store at 4° C. • Wash the machine with PBS→template→system wash • Wash the machine with 20% ETOH→template→system wash • Put both lines in 20% ETOH and shut down • Add 2 L of PBS into a big bucket and put the Dialysis cassette (Side-A-Lyzer; Thermo scientific) to prime. • Collect the vectors from the marked FACS tubes using a syringe and needle and add into the dialysis cassette→remove excess air from the membrane, carefully place the rubber on top of the cassette and let it float in the PBS-containing bucket→leave over night at room temperature on a slow rotating rotor. Next Day: • Prime membrane by adding 5 ml PBS onto a centrifugal filter (Amico Ultra 15; MERCK)→spin for 5 mins at 4 Krpm • Remove excess PBS from inside the membrane. • Take vectors out from the cassette and load onto the membrane→spin for 5 mins at 4 Krpm • Wash the membrane with the vectors inside few times, then collect into 2 ml centrifuge tube filter 0.22 μM (Spin-X; COSTAR) • Spin for 3 mins at 13 Krpm. • Remove filter and aliquot: 1×100 μl (for injection), the rest in 10-2 μl aliquots. • Store in −80° C. • Virus quantification was performed using qRT-PCR with primers and probes for the luciferase gene. Mice Experiment […]

[1] = AAV9, phenobarbital intraperitoneally

B1: PB1-MinTK: promoter: single mouse PBREM element and MinTK minimal promoter, SEQ ID NO: 7 (nucleic acid)
DNA: TCTGTACTTTCCTGACCTTGGCACAGTGCCACCATCAACTTGCCTGACACCGATCCGGCCCCGCCCAGCGTCTTGTCATTGGCGAATTCGAACACGCAGATGCAGTCGGGGCGGCGCGGTCCGAGGTCCACTTCGCATATTAAGGTGACGCGTGTGGCCTCGAACACCGAGCGACCCTGCAGCGACCCGCTTAACAGCGTCAACAGCGTGCCGCAGATCTCGAGGAGCTTGGCGAGATTTTCAGGAGCTAAGGAAGCTAAAC
modifications: PB1-MinTK
For B1, the “luciferase expression before induction” value (0 hrs) was “no expression of the luciferase gene”, the “time at which induction is complete” value [1] was 24 h and the “time of maximal activity after induction” value [1] was 9 h. For the same molecule, the “tissue distribution of luciferase expression” value (AAV9 via tail vein) was “confined to the liver”.
